Measured values taken from publication doi:10.1101/2025.01.22.634233 (bioRxiv, 2025).

T1: biotinylated Avi-BARD1^554-777, wild type (human, UniProt Q99728 554-777, biotinylated by MBP-BirA)
T1 sequence: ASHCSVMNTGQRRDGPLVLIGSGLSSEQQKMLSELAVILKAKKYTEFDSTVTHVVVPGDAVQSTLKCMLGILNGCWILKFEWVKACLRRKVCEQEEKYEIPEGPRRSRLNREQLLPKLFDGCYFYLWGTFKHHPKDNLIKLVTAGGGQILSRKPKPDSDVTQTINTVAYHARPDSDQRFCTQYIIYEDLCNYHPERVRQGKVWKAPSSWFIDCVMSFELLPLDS

B1: BARD1 BRCT (BARD1^554-777), wild type (domain or fragment)
chain: ASHCSVMNTGQRRDGPLVLIGSGLSSEQQKMLSELAVILKAKKYTEFDSTVTHVVVPGDAVQSTLKCMLGILNGCWILKFEWVKACLRRKVCEQEEKYEIPEGPRRSRLNREQLLPKLFDGCYFYLWGTFKHHPKDNLIKLVTAGGGQILSRKPKPDSDVTQTINTVAYHARPDSDQRFCTQYIIYEDLCNYHPERVRQGKVWKAPSSWFIDCVMSFELLPLDS
B2: pS5pS7 GST-(CTD)26 (domain or fragment)
chain: not shown
modifications: phosphoserine at S5 and S7 of the CTD heptads (pS5pS7)

Experiments:
[1] = biological target: the molecule itself; test: cross-linking
[2] = biological target: T1, biotinylated Avi-BARD1^554-777, wild …; test: BLI

| Binder | binding result [1] | Kd [2] |
| --- | --- | --- |
| B1 | binds | – |
| B2 | – | 193 nM |
